Among the data in publication PMC4722452 are Kd and apparent microscopic Kd, allosteric site (from the M726 signal shift) values, retold here.

One test deals with Sos^CatW729E (UniProt Q07889). Kind of test: other fluorescence titration; quenching of the intrinsic Trp fluorescence of Sos (10 μM) on adding Ras (1-50 μM) in Hepes buffer; excitation 295 nm, emission 336 nm; single-site quadratic fit; overall apparent (macroscopic) Kd.
Test [1] deals with Sos^Cat (Son of Sevenless, residues 563-1049) (UniProt Q07889). Described as above.
The target is the same in test [2]. Description: NMR titration; 1H,13C HMQC of [13C-methyl-Met,Ile]Sos^Cat or Sos^CatW729E (60 μM) with unlabelled Ras added at Ras:Sos 0.5:1 to 4:1; 298 K; Met methyl reporter signals M726 (allosteric), M824 (catalytic), M714 (between).

On to “H-Ras·GDP (from UniProt P01112 1-166) (domain or fragment)”, for which, in the test with Sos^CatW729E, the Kd is 67 µM.
Still for that read-out and setting: the result for “H-Ras·GTPγS (from UniProt P01112 1-166) (domain or fragment)” reads 28 µM.
For “K-RasG12V·GTPγS (from UniProt P01116 1-166) (domain or fragment)”, the Kd in test [1] was found to be 31 µM.
For the substance “K-Ras·GTPγS (from UniProt P01116 1-166) (domain or fragment)”, the apparent microscopic Kd, allosteric site (from the M726 signal shift) in test [2] is 2 µM. For the same substance, in test [1], the Kd came out at 10 µM.
